± gives the uncertainty stated by the source.
Assay: amyloid nucleation score (Sup35N fusion, yeast selection) (log enrichment); library NNK3; higher = more nucleation; inactive = no reads after selection
Summary of the method: (§1)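 After 24 hours of induction with 100 μM copper sulfate, psi-negative yeast expressing peptides of 20 random codons fused to Sup35N were grown for 7 days at 30°C on medium lacking adenine and uracil. Input and output plasmid inserts were sequenced with Illumina, and sequences with under 100 input reads were discarded. Scores for nucleation are the DiMSum log enrichment of output over input reads, centred on the mode score of non-aggregating sequences.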

Substance | amyloid nucleation score
GVLLV | inactive

Assay: amyloid nucleation score (Sup35N fusion, yeast selection) (log enrichment); library NNK1; higher = more nucleation; inactive = no reads after selection
Summary of the method: as §1

Substance | amyloid nucleation score
GVLLV | 0.129 ± 0.93
DVGSNKGAIIGLMVGGVVIA | 3.61 ± 0.19
TFTMSWLK | 3.22 ± 0.078
IKATGTRPRIHRYFGNC | -0.173 ± 0.58
SMKWSLYLQCRIMYIQTDSR | 3.21 ± 0.12
NNTFIMLIF | 6.98 ± 0.083
RDCPTNIVAGTLLCLMAEWT | -0.549 ± 1
MITWKGLFPAGVGFLRLHA | -0.024 ± 0.43
CVMWGTLRFLNLASGLFLCA | 0.778 ± 0.93
SVNLNFLFAL | 8.056 ± 0.056
IEDFEKGISVRVVTLWSWVV | -0.93 ± 0.39
GNGHWQQVG | 0.001 ± 0.33
LRTMGISCDWETFDLDINKG | inactive
FVFSGFYT | 0.353 ± 0.21
IRTCLVSIVATRCKVGVESP | 0.403 ± 0.34
TCRIVVGSSCFRSTVFSFLY | 1.45 ± 0.68
VYYYVLSLV | 0.207 ± 1.4
FRSFLVPACYHGFGDGYMFF | -0.439 ± 0.77
DEITLMLA | 0.155 ± 0.35
WESSGFQMICRSFSFNMFSS | -0.458 ± 0.52
FRQPGYMCEIRVVGFGPKPL | -0.274 ± 0.9

Assay: amyloid nucleation score (Sup35N fusion, yeast selection) (log enrichment); library NNK2; higher = more nucleation; inactive = no reads after selection
Summary of the method: as §1

Substance | amyloid nucleation score
DVGSNKGAIIGLMVGGVVIA | 2.4 ± 0.19

Reference: the supplement of paper PMC12042874
